Data taken from patent publication US20200368364A1, “CYSTEINE PEPTIDE-ENABLED ANTIBODIES” (City of Hope, priority 2016, published 2020).

Legend:
[1] = molecular target: mutated I83 trastuzumab memAb (I83E); test: SPR at 37° C., meditope over immobilised I83E trastuzumab memAb
[2] = molecular target: original trastuzumab memAb (meditope-enabled trastuzumab, I83 in the light chain); test: SPR at 37° C., meditope over immobilised original trastuzumab memAb
[3] = molecular target: HER2 on SKBR3 cells (UniProt P04626); test: Flow cytometry on SKBR3 cells with 10 nM complex on ice and an AF488 secondary antibody. The other quadrants are printed as Q1 1.19, Q3 0 and Q4 0.18.
[4] = molecular target: HER2-Fc (R&D Systems) (UniProt P04626); test: SPR (Biacore T200), HER2-Fc amine-coupled to a CM5 chip, Fab flowed over; ± is the SD of three runs
[5] = molecular target: Her2 (antigen in the SPR of Example 1, FIG. 14) (UniProt P04626); test: SPR

Substance	Kd [1] [nM]	Kd [4] [nM]	koff [4] [s⁻¹]	kon [4] [M⁻¹ s⁻¹]	further results
5-diphenylalanine meditope (FIG. 3) (peptide)	0.86	–	–	–	–
original meditope, Ac-…-Am (peptide)	38	–	–	–	Kd [2]: 1000 nM
A175C meFab conjugated to the AlexaFluor647 thiopyridine-meditope	–	–	–	–	Q2 (share of events positive for both the AF647 meditope and the AF488 secondary antibody) [3]: 98.6
Trastuzumab I83E, A175C Fab	–	0.296	0.000378	1.28e+06	–
Trastuzumab I83E Fab (meditope-enabled trastuzumab V2 Fab)	–	0.863	0.000674	1.04e+06	Kd [5]: 0.055 nM; koff [5]: 0.00021 s⁻¹; kon [5]: 3.8e+06 M⁻¹ s⁻¹
